Experiments:
[1] = ADP SPA screening of ADP aptamer clones; type: binding; details: 1 μM 3H-ADP; vs. clone R0; FIG. 27
Experimental: Mini-prepped plasmid DNA and corresponding sequence (Table 4) were obtained from Lark Technologies. Any sequence that differed by more than two nucleotides from all other ADP aptamer clones was considered to be unique for the purposes of screening. “Unique” clones were PCR amplified from purified plasmid DNA using the original 5′-primer used in the selections (JD18.25B; SEQ ID NO: 17) and a new 3′-primer, 5′-[…]-3′ (JD18.122.A; 200 nM scale, 46-mer) Tm ˜58° C.; SEQ ID NO: 72). This primer adds a 3′-sequence tag to the transcribed RNA molecules which allows the aptamer clones to be immobilized onto the surface of an NEN streptavidin coated flash plate via base pairing with a biotinylated DNA capture oligo (MK08.112A; 5′-biotin-[…]-3′; SEQ ID NO: 73).
NEN flashplates used in the ADP SPA screen and competition binding studies were prepared by incubating the individual wells with 40 pmol of MK08.112A biotinylated capture probe in 22 μl of PBS Buffer: BupH (0.05% tRNA, 0.025% Tween 20) with and shaking at 650 RPM, 15 min. […] Treated wells were incubated with 30 μl of 1 μM ^3H-ADP in 1× Selection Buffer for 30 s with shaking at 650 RPM and then assessed for ADP-mediated signal by quantification on a TopCount, ^3H SPA scintillation counter.
Clones were initially assessed for the ability to yield ADP-mediated signal in the ADP SPA.

[2] = SPA competitive binding of ADP aptamer clones (cold ADP vs other adenosine nucleoside derivatives); details: competitive binding analysis; FIG. 29
Experimental: NEN flashplates used in the ADP SPA screen and competition binding studies were prepared by incubating the individual wells with 40 pmol of MK08.112A biotinylated capture probe in 22 μl of PBS Buffer: BupH (0.05% tRNA, 0.025% Tween 20) with and shaking at 650 RPM, 15 min. Excess capture probe was removed from the wells by washing with 1×PBS 3 times and inverting plate with force to remove liquid and blotting them dry on paper towels. Crude transcription of RNA transcribed with capture probe sequence (5 μl) in 25 μl 1×PBS was incubated in designated wells with shaking at 650 RPM for 30 min. Excess aptamer was removed by washing with 1×PBS 3 times and blotting as before. Treated wells were incubated with 30 μl of 1 μM ^3H-ADP in 1× Selection Buffer for 30 s with shaking at 650 RPM and then assessed for ADP-mediated signal by quantification on a TopCount, ^3H SPA scintillation counter.
The best ADP binders, e.g., clones 1, 2, 11, 12, 14, and 16 were subsequently tested for ADP/ATP discrimination by competition with either cold ADP or ATP (FIG. 28). Clones such as F01 (clone #11), whose SPA signal was competed off with the lowest concentration of ADP, i.e., the best ADP binder, and correspondingly the highest concentration of ATP, i.e., the worst ATP binder, were considered to be ADP selective.

[3] = SPA KD determination for ADP aptamer F01, ATP; type: binding
Experimental: (§1) The specificity of the ADP aptamer clone F01 was characterized using a variety of nucleoside analogues and mimetics as shown in FIG. 30. NEN flashplates used in the ADP assay were prepared as described above using 150 pmol ADP clone F01 ( in 20 μl 1×PBS incubated in designated wells with shaking at 650 RPM for 30 min). Excess F01 aptamer was removed by washing with 1×PBS 3-times and blotting as before. Treated wells were incubated with 30 μl of 1 μM ^3H-ADP in 1× Selection Buffer for 30 s with shaking at 650 RPM and then assessed for ADP-mediated signal by quantification on a TopCount, ^3H SPA scintillation counter. Thereafter, 1 μl of each test compound was added to the appropriate wells and the plate shaken at 650 RPM for 30 s prior to recounting on TopCount, ^3H SPA scintillation counter. Titration of each test compound was continued with subsequent 1 μl additions up to 10 mM final concentration. The dissociation constant KD was estimated from the IC50 of the competitive binding curve.
This impurity confounds precise determination of ADP aptamer selectivity by SPA competition.

[4] = SPA KD determination for ADP aptamer F01, nucleoside analogs and mimetics; type: binding; details: SPA competition; KD estimated from IC50; FIG. 30
Experimental: as §1

B1: GGACGGATCGCGTGATGACGAGGGGAATGAACACCCCGGACAATCAGACACGGTCATCTCACACACCTCCCTGA (nucleic acid)
chain: GGACGGATCGCGTGATGACGAGGGGAATGAACACCCCGGACAATCAGACACGGTCATCTCACACACCTCCCTGA
modifications: RNA, all phosphodiester, T or U not given here
- ADP-mediated signal in the SPA screening assay above background signal [1]: more than 2.5 fold
- selectivity for ADP compared to other adenosine nucleoside derivatives (AMP, ATP, cAMP) [2]: highly selective for ADP
- KD for ATP relative to KD for ADP ([3]; SPA competition, KD estimated from IC50): at least 70 fold
- selectivity for ADP over ATP relative to what preliminary studies indicated ([3]; after column purification of ATP): approximately 4 fold
- KD values of other nucleoside derivatives and mimetics relative to KD for ADP [4]: more than 300 fold

— US20040018515A1, “Compositions selective for adenosine diphosphate and methods of using same” (priority 2002, published 2004)
